The series addresses T1, human placental RNase inhibitor, P13489.
T1 chain: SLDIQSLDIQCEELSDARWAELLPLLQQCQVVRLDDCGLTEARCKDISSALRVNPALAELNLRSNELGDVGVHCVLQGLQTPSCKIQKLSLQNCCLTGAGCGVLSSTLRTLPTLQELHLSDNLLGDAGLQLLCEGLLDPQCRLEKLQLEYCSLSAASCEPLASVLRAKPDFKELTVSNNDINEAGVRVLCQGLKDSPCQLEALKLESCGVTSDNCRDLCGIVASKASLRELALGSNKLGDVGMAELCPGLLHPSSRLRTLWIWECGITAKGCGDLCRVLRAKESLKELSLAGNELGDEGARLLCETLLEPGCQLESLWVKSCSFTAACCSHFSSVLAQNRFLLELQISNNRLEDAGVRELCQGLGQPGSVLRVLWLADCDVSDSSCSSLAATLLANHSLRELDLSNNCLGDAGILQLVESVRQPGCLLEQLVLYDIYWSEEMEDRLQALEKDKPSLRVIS

B1: recombinant carboxy-terminal FLAG-tagged chicken (Gallus gallus) leukocyte RNase A-1 (protein)
chain: VPTYQDFLRTHVDFPKTSFPNIAAYCNVMMVRRGINVHGRCKSLNTFVHTDPRNLNTLCINQPNRALRTTQQQLPVTDCKLIRSHPTCSYTGNQFNHRVRVGCWGGLPVHLDGTFP
For the protein B1, the “RNase activity (yeast tRNA substrate)” value was “completely inhibited RNase activity”.

B2: recombinant carboxy-terminal FLAG-tagged chicken (Gallus gallus) leukocyte RNase A-2 (protein)
chain: VPTYQDFLYKHMDFPKTSFPSNAAYCNVMMVRRGMTAHGRCKSFNTFVHTDPRNLNTLCINQPDQALRTTRRHFRITDCKLIRSHPTCRYSGNQFNRRVRVGCRGGLPVHLDGTSP
Consider B2, for which the “RNase activity (yeast tRNA substrate)” value is given as “completely inhibited RNase activity”.
